Results: the supplement of paper PMC10219994
± gives the standard deviation of the averaged measurements.

B1: library; a variant is named by its letters at N, in order (parent)
chain: GAGACCGCAACTGAAAAGTTGTGGNNNNNATAGTGAGTCGCTGCCTGCAAAGACACAACT

Variants of: B1
Assay: ligation selection enrichment (abundance after / before one-round selection) (fold); higher = more template-directed ligation activity
Details: with T7Psub CACGGAUGCUAAUACGACUCACUAUA; MgCl2 25 mM; 42 °C; 4 h; pH 8.5
How it was run: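 In each of two independent experiments, 6 μM RNA substrate was reacted for 4 h at 42 °C with 0.75 μM of a T7-transcribed RNA ligase library randomized at five core positions, in buffer containing 50 mM EPPS pH 8.5 and 25 mM MgCl2. Only reads scoring ≥30 in quality at all randomized positions were counted after MiSeq sequencing. Each enrichment value is the ratio of abundance after ligation to abundance before ligation.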

How did the ligation selection enrichment turn out when GAGACCGCAACTGAAAAGTTGTGGGATTTATAGTGAGTCGCTGCCTGCAAAGACACAACT was run?
The ligation selection enrichment was 0.577 ± 0.15.

With GAGACCGCAACTGAAAAGTTGTGGGATTAATAGTGAGTCGCTGCCTGCAAAGACACAACT as the variant, how does the ligation selection enrichment read?
Its ligation selection enrichment is 0.278 ± 0.094.

GAGACCGCAACTGAAAAGTTGTGGGATTGATAGTGAGTCGCTGCCTGCAAAGACACAACT was tested. Which ligation selection enrichment did it give?
Its ligation selection enrichment is 1.47 ± 0.2.

For GAGACCGCAACTGAAAAGTTGTGGGATTCATAGTGAGTCGCTGCCTGCAAAGACACAACT, which ligation selection enrichment is on record?
Its ligation selection enrichment is 0.183 ± 0.0076.

Which ligation selection enrichment does the source give for GAGACCGCAACTGAAAAGTTGTGGCATGCATAGTGAGTCGCTGCCTGCAAAGACACAACT here?
The ligation selection enrichment was 0.1307 ± 0.00014.

GAGACCGCAACTGAAAAGTTGTGGCATGAATAGTGAGTCGCTGCCTGCAAAGACACAACT was tested. Which ligation selection enrichment did it give?
The ligation selection enrichment was 0.381 ± 0.068.

With GAGACCGCAACTGAAAAGTTGTGGCATGTATAGTGAGTCGCTGCCTGCAAAGACACAACT as the variant, how does the ligation selection enrichment read?
The ligation selection enrichment was 0.109 ± 0.064.

With GAGACCGCAACTGAAAAGTTGTGGCATGGATAGTGAGTCGCTGCCTGCAAAGACACAACT as the variant, how does the ligation selection enrichment read?
The ligation selection enrichment was 0.226 ± 0.027.

How did the ligation selection enrichment turn out when GAGACCGCAACTGAAAAGTTGTGGACACGATAGTGAGTCGCTGCCTGCAAAGACACAACT was run?
The ligation selection enrichment was 0.497 ± 0.035.

GAGACCGCAACTGAAAAGTTGTGGACACTATAGTGAGTCGCTGCCTGCAAAGACACAACT was tested. Which ligation selection enrichment did it give?
The ligation selection enrichment was 0.474 ± 0.18.

How did the ligation selection enrichment turn out when GAGACCGCAACTGAAAAGTTGTGGACACCATAGTGAGTCGCTGCCTGCAAAGACACAACT was run?
The ligation selection enrichment was 0.132 ± 0.0051.

How did the ligation selection enrichment turn out when GAGACCGCAACTGAAAAGTTGTGGACACAATAGTGAGTCGCTGCCTGCAAAGACACAACT was run?
Its ligation selection enrichment is 0.134 ± 0.024.

How did the ligation selection enrichment turn out when GAGACCGCAACTGAAAAGTTGTGGGATCTATAGTGAGTCGCTGCCTGCAAAGACACAACT was run?
Its ligation selection enrichment is 0.306 ± 0.085.

Which ligation selection enrichment does the source give for GAGACCGCAACTGAAAAGTTGTGGTATGTATAGTGAGTCGCTGCCTGCAAAGACACAACT here?
The ligation selection enrichment was 0.135 ± 0.031.

For GAGACCGCAACTGAAAAGTTGTGGTATGGATAGTGAGTCGCTGCCTGCAAAGACACAACT, which ligation selection enrichment is on record?
The ligation selection enrichment was 0.616 ± 0.093.

For GAGACCGCAACTGAAAAGTTGTGGTATGCATAGTGAGTCGCTGCCTGCAAAGACACAACT, which ligation selection enrichment is on record?
Its ligation selection enrichment is 0.29 ± 0.026.

With GAGACCGCAACTGAAAAGTTGTGGTATGAATAGTGAGTCGCTGCCTGCAAAGACACAACT as the variant, how does the ligation selection enrichment read?
Its ligation selection enrichment is 2.32 ± 0.16.

Which ligation selection enrichment does the source give for GAGACCGCAACTGAAAAGTTGTGGCCAAAATAGTGAGTCGCTGCCTGCAAAGACACAACT here?
Its ligation selection enrichment is 0.162 ± 0.034.

GAGACCGCAACTGAAAAGTTGTGGCCAACATAGTGAGTCGCTGCCTGCAAAGACACAACT was tested. Which ligation selection enrichment did it give?
Its ligation selection enrichment is 0.217 ± 0.026.

Which ligation selection enrichment does the source give for GAGACCGCAACTGAAAAGTTGTGGCCAAGATAGTGAGTCGCTGCCTGCAAAGACACAACT here?
Its ligation selection enrichment is 0.349 ± 0.024.

For GAGACCGCAACTGAAAAGTTGTGGCCAATATAGTGAGTCGCTGCCTGCAAAGACACAACT, which ligation selection enrichment is on record?
Its ligation selection enrichment is 3.42 ± 0.96.

GAGACCGCAACTGAAAAGTTGTGGTATTGATAGTGAGTCGCTGCCTGCAAAGACACAACT was tested. Which ligation selection enrichment did it give?
The ligation selection enrichment was 2.17 ± 0.33.

GAGACCGCAACTGAAAAGTTGTGGTATTTATAGTGAGTCGCTGCCTGCAAAGACACAACT was tested. Which ligation selection enrichment did it give?
Its ligation selection enrichment is 0.402 ± 0.22.

Which ligation selection enrichment does the source give for GAGACCGCAACTGAAAAGTTGTGGTATTAATAGTGAGTCGCTGCCTGCAAAGACACAACT here?
The ligation selection enrichment was 0.197 ± 0.042.

Which ligation selection enrichment does the source give for GAGACCGCAACTGAAAAGTTGTGGTATTCATAGTGAGTCGCTGCCTGCAAAGACACAACT here?
The ligation selection enrichment was 0.186 ± 0.0052.

Which ligation selection enrichment does the source give for GAGACCGCAACTGAAAAGTTGTGGCCAGTATAGTGAGTCGCTGCCTGCAAAGACACAACT here?
Its ligation selection enrichment is 0.107 ± 0.041.

How did the ligation selection enrichment turn out when GAGACCGCAACTGAAAAGTTGTGGCCAGGATAGTGAGTCGCTGCCTGCAAAGACACAACT was run?
Its ligation selection enrichment is 0.178 ± 0.009.

For GAGACCGCAACTGAAAAGTTGTGGCCAGCATAGTGAGTCGCTGCCTGCAAAGACACAACT, which ligation selection enrichment is on record?
The ligation selection enrichment was 0.108 ± 0.022.

Which ligation selection enrichment does the source give for GAGACCGCAACTGAAAAGTTGTGGCCAGAATAGTGAGTCGCTGCCTGCAAAGACACAACT here?
The ligation selection enrichment was 0.297 ± 0.02.

How did the ligation selection enrichment turn out when GAGACCGCAACTGAAAAGTTGTGGGCACCATAGTGAGTCGCTGCCTGCAAAGACACAACT was run?
Its ligation selection enrichment is 0.153 ± 0.024.

With GAGACCGCAACTGAAAAGTTGTGGGCACTATAGTGAGTCGCTGCCTGCAAAGACACAACT as the variant, how does the ligation selection enrichment read?
Its ligation selection enrichment is 0.555 ± 0.18.

Which ligation selection enrichment does the source give for GAGACCGCAACTGAAAAGTTGTGGGCACAATAGTGAGTCGCTGCCTGCAAAGACACAACT here?
Its ligation selection enrichment is 0.175 ± 0.0085.

Which ligation selection enrichment does the source give for GAGACCGCAACTGAAAAGTTGTGGGCACGATAGTGAGTCGCTGCCTGCAAAGACACAACT here?
Its ligation selection enrichment is 0.521 ± 0.053.

With GAGACCGCAACTGAAAAGTTGTGGCATTTATAGTGAGTCGCTGCCTGCAAAGACACAACT as the variant, how does the ligation selection enrichment read?
The ligation selection enrichment was 0.539 ± 0.13.

For GAGACCGCAACTGAAAAGTTGTGGCATTAATAGTGAGTCGCTGCCTGCAAAGACACAACT, which ligation selection enrichment is on record?
The ligation selection enrichment was 0.16 ± 0.038.

How did the ligation selection enrichment turn out when GAGACCGCAACTGAAAAGTTGTGGCATTGATAGTGAGTCGCTGCCTGCAAAGACACAACT was run?
The ligation selection enrichment was 1.24 ± 0.22.

Which ligation selection enrichment does the source give for GAGACCGCAACTGAAAAGTTGTGGCATTCATAGTGAGTCGCTGCCTGCAAAGACACAACT here?
Its ligation selection enrichment is 0.152 ± 0.013.

How did the ligation selection enrichment turn out when GAGACCGCAACTGAAAAGTTGTGGTCATCATAGTGAGTCGCTGCCTGCAAAGACACAACT was run?
The ligation selection enrichment was 0.166 ± 0.002.

GAGACCGCAACTGAAAAGTTGTGGTCATAATAGTGAGTCGCTGCCTGCAAAGACACAACT was tested. Which ligation selection enrichment did it give?
Its ligation selection enrichment is 0.274 ± 0.026.

Which ligation selection enrichment does the source give for GAGACCGCAACTGAAAAGTTGTGGCCATCATAGTGAGTCGCTGCCTGCAAAGACACAACT here?
Its ligation selection enrichment is 0.121 ± 0.0018.

How did the ligation selection enrichment turn out when GAGACCGCAACTGAAAAGTTGTGGCCATAATAGTGAGTCGCTGCCTGCAAAGACACAACT was run?
The ligation selection enrichment was 0.14 ± 0.025.

GAGACCGCAACTGAAAAGTTGTGGTCAAGATAGTGAGTCGCTGCCTGCAAAGACACAACT was tested. Which ligation selection enrichment did it give?
Its ligation selection enrichment is 0.718 ± 0.12.

With GAGACCGCAACTGAAAAGTTGTGGTCAACATAGTGAGTCGCTGCCTGCAAAGACACAACT as the variant, how does the ligation selection enrichment read?
The ligation selection enrichment was 0.48 ± 0.05.

How did the ligation selection enrichment turn out when GAGACCGCAACTGAAAAGTTGTGGTCAAAATAGTGAGTCGCTGCCTGCAAAGACACAACT was run?
Its ligation selection enrichment is 0.317 ± 0.039.

Which ligation selection enrichment does the source give for GAGACCGCAACTGAAAAGTTGTGGTCAATATAGTGAGTCGCTGCCTGCAAAGACACAACT here?
Its ligation selection enrichment is 6.44 ± 2.6.
